Assay: label from the status in PepcDB records

Row | Sequence | protein production
1 | MCDTFVEFIQLEETVKHDENGKPVKRLRRRETLVHSENVAGRSFWNEHSSLHKDLGHFAKDIGKIEPDYVKSFQFESRLLPLTWVVVRIDGCHFHRFSEVHEFEKPNDEQALKLMNSCAVAVLEEFQDIAFAYGVSDEFSFVLKNKSELYKRQSSKIISAVVSFFTSTYMMRWGDFFPHKKLKYPPSFDGRAVCYPTSDILLDYLAWRQVDCHINNQYNTCFWMLVKSGKSKIQAQDYLKGTQTREKNELLSQQFGIEYNSLPVIFRMGSSVFRLKVLLLLSYSKILLVFHSRFLLL | failed
2 | MCIAIPGKMTAIVDENTATIDMGGICRDVNMALMGGAEESMIGKHFLVHVGYAISEISEEESEETMRLLKIMAGLEEIDSFE | not failed
3 | MCIQKVIEDKLSSALKPTFLELVDKSCGCGTSFDAVIVSNNFEDKKLLDRHRLVNTILKEELQNIHAFSMKCHTPLEYDKLKSK | not failed
4 | MCKNSQYLHLPDEIPQQLMLLWESSDEVWGFKDLDSHYLYANNPFIELLNFPPEFCIKGLLDDELPHPSFAKFSSQFREQELLAAITKKRVSSIEMHYFGREQKLQPYLFDKFPLLNSKKECLGIIF | failed
5 | MCLGMAGEHMAPNSKHLSLHMPVDFIDALAQAESIDEILKVVATWFMEMFVADRASITFPVNDSHLRVVALEGNRVIDVDAPVPIHGTMVGRVFSRGQAEICDDLAASTDLDCLILASRGLGSCLDAPLRSGRDCYGTINVGRRDRNGFTLADMRKIEALAMWIATLIRVHRQVERLTHLSRTDPLTQIMNRRAFTESFQTRRLEGERRRAEVGTGLGFAVVDIDHFKQINDTYGHDVGDVVLAFVGKMMNEFFRESDCVARFGGEEFCVLMQDVDEGGMQRLLERFRVALGDCVVTHSAGTVSITASIGAVLVKTSVAGIDRAFRSADLALYKAKADGRNRVRIAPSAEQSHAGNPANRLCYPG | failed
6 | MCPKNASYYGNRAATLMMLGRFREALGDAQQSVRLDDSFVRGHLREGKCHLSLGNAMAACRSFQRALELDHKNAQAQQEFKNANAVMEYEKIAETDFEKRDFRKVVFCMDRALEFAPACHRFKILKAECLAMLGRYPEAQSVASDILRMDSTNADALYVRGLCLYYEDCIEKAVQFFVQALRMAPDHEKACIACRNAKALKAKKEDGNKAFKEGNYKLAYELYTEALGIDPNNIKTNAKLYCNRGTVNSKLRKLDDAIEDCTNAVKLDDTYIKAYLRRAQCYMDTEQYEEAVRDYEKVYQTEKTKEHKQLLKNAQLELKKSKRKDYYKILGVDKNASEDEIKKAYRKRALMHHPDRHSGASAEVQKEEEKKFKEVGEAFTILSDPKKKTRYDSGQDLDEEGMNMGDFDPNNIFKAFFGGPGGFSFEASGPGNFFFQFG | failed
7 | MCSMASHDLSVFLEEFGATVNLTLPGIVSEKERLLLKLLMEGMSVTEISQYRNRSAKTISHQKKQLYEKLGIQSDITFWRDIFFQYHPQVISGTGNKNNFYIPDNRCHHIVTPEAISLALENHEFKPWIQPVFCAQTGVLTGCEVLVRWEHPQTGIIPPDQFIPLAESSGLIVIMTRQLMKQTADILMPVKHLLPDNFHIGINVSAGCFLAAGFEKECLNLVKKLGNDKIKLVLELTERNPIPVTPEARAIFDSLHQHNITFALDDFGTGYATYRYLQAFPVDFIKIDKSFVQMAGVDEISGHIVDNIVELARKPGLSIVAEGVETQEQADLMIGKGVHFLQGYLYSPPVPGNKFISEWVMKAGG | failed
8 | MCWPAPPRPSRRSSNGSPLLWQPGGYDRPPPPCRSLPHVCQNFVVRGCLMTISGGTFDPSICEMEPIATPGAIQPHGALMTARADSGRVAHASVNLGEILGLPAASVLGAPIGEVIGRVNEILLREARRSGSETPETIGSFRRSDGQLLHLHAFQSGDYMCLDIEPVRDEDGRLPPGARQSVIETFSSAMTQVELCELAVHGLQLVLGYDRVMAYRFGADGHGEVIAERRRQDLEPYLGLHYPASDIPQIARALYLRQRVGAIADACYRPVPLLGHPELDDGKPLDLTHSSLRSVSPVHLDYMQNMNTAASLTIGLADGDRLWGMLVCHNTTPRIAGPEWRAAAGMIGQVVSLLLSRLGEVENAAETLARQSTLSTLVERLSTGDTLAAAFVAADQLILDLVGASAAVVRLAGQELHFGRTPPVDAMQKVLDSLGRPSPLEVLSLDDVTLRHPELPELLAAGSGILLLPLTSGDGDLIAWFRPEHVQTITWGGNPAEHGTWNPATQRMRPRASFDAWKETVTGRSLPWTSAERNCARELGEAIAAEMAQRTRAELARLRHYDPLTGLANRSYLQERLAQDGQSAAALLFIDLDRFKAVNDSMGHGVGDGLLIEVARSLVATVRPHDLVVRLGGDEFVVLCHRLDAAGIVSLAERLRQVLEQPFEVAGRKCHISASIGIAMADSIGDLDLVRAADIAMYAAKKNGGNRGELFRPSLYEETTQLVELDNDMRGAIESEQFHLVYQPIFALNPETERLVGFEALLRWDHPLHGALQPGIFIPLAERLGHIHAMGNWVLRRAILQLQAFRSAGPELDLKMNVNVSPLQLARPDFLARLADLLAQVPDLPRHALCLEITETSLSDEAVSEALISIRALGVRIAIDDFGTGFSSLACLRRLPVDVAKLDRAFLGGGHTAAQDHRFFAAVTGLVHAADLKVVQEGIETLDQLALVRAAGADFAQGFHLAAPLSIAAALGLIAASRKE | failed
9 | MCWVCGENLQAQPYMFRNVVMSDGLSGLLVNAIYKDSEGFIWLGTDNGLDRFDGVKVKHFEFRGVDSGRKKRVNCITETDNKQLWIGNGIGLWRLNRSGSELQRIVPEKIDCAVNALLADGDVLYIGTERGLFIQKDGQLLQVQTDKNMLAACNRIMDLCLNEDKSVLWLATVQGLFSYSLKDGQINSWHFRENVPEADYFRCLTRIGETLYLGTMSQGVVCFDIPKQTFAHTVSLGCDVISDISGDGKETVYIATDGNGVHFLSHKDRKVVRRFFHDVNDKEGIRSNSIYSLLVDDRGAVWVGHFQAGLDYSLYQNGLFRTYAYPPQFNSANLSIRSFVNRGPEKVIGSRDGLFYINEATGIVKSFVKPVLTSDLILTICFYEGEYYIGTYGGGMMVLNPQTLSLKYFTQGDTELFQKGHIFCVKPDNRGNLWIGTSQGLFCYNGQTKQIKNFTSTNSQLPEGNVYEVSFDSTGKGWIATETGMCIYDPASQSLRSNVFPEGFVHKDKVRTIYEDAEHNLYFIREKGSLFTSTLTMDHFRNQSVLSTLPDNSLMSITEDNQGWLWVGCNDGLLRIKEEGEEYDSFTFNDGVPGPTFTNGAAYKDERGLLWFGNTKGLIYVDPKQVDEVRGKVRPIVFTDILANGVSINKSSLKYNQNNLTFCFTDFAYGLPSALLYEYKLEGADSDWKLLTAQSEVSYYGLSSGTYTFCVRIPGNEQSMAIYKVTVQPMIPWWGWVILAISIILIVVLVRYYVRKSAPLVTEVHEISSEEEEEEEKTAEPHPAEEKYKANRMSEAECKELHDRLVAYVEKEKPYINPDLKMGELAAALHTSSHSLSYLLNQYLNQSYYDFINEYRVAQFKKMVEDSDYSRYTLTALAELCGFSSRASFFRSFKKSTGVTPNEYIRSIGGTAKDE | failed
10 | MDAAVTDDFQQILPIEQLRSTHASNDYVERPPAPCKQALSSPSLIVQTHKSDWSLATMPTSLPRSLSQCHQLQPLPQHLSQSSIASSMSHSTTASDQRLLASITPSPSGQSIIRTQPGAGVHPKADGALKGEAEQSAGHPSEHLFICEECGRCKCVPCTAARPLPSCWLCNQRCLCSAESLLDYGTCLCCVKGLFYHCSTDDEDNCADEPCSCGPSSCFVRWAAMSLISLFLPCLCCYLPTRGCLHLCQQGYDSLRRPGCRCKRHTNTVCRKISSGSAPFPKAQEKSV | failed
11 | MDAKEDVRPTGRGGRGVTAKSHVIVTSNMSVRQFLDVKYTTMNLNLFLSLDPIVDDNQNTLIKKDCSGRVDKDKGIVGDAQVFYTNGFKMSAMVTKHTNRSYLNNPTSIRRKLFDDAGVKGSNGVVRFHSVETSNVVTISVVNDFYNNEMGDDGVTNVTGIIRLARSTNGDSN | failed
12 | MDALLTKFNEDRSLQDENLSQPRTRVRIVDDNLYNKSNPFQLCYKKRDYGSQYYHIYQYRLKTFRERVLKECDKRWDAGFTLNGQLVLKKDKVLDIQGNQPCWCVGSIYCEMKYKPNVLDEVINDTYGAPDLTKSYTDKEGGSDEIMLEDESGRVLLVGDFIRSTPFITGVVVGILGMEAEAGTFQVLDICYPTPLPQNPFPAPIATCPTRGKIALVSGLNLNNTSPDRLLRLEILREFLMGRINNKIDDISLIGRLLICGNSVDFDIKSVNKDELMISLTEFSKFLHNILPSISVDIMPGTNDPSDKSLPQQPFHKSLFDKSLESYFNGSNKEILNLVTNPYEFSYNGVDVLAVSGKNINDICKYVIPSNDNGESENKVEEGESNDFKDDIEHRLDLMECTMKWQNIAPTAPDTLWCYPYTDKDPFVLDKWPHVYIVANQPYFGTRVVEIGGKNIKIISVPEFSSTGMIILLDLETLEAETVKIDI | failed

From a protein production outcome set (Wang et al. 2014)
